Publication PMC3060506 (The Journal of Biological Chemistry, 2010)
Ends that are not written are not given here.

Biological target: T1, RNASEH2BC heterodimer, purified (human, UniProt Q5TBB1 1-312; Q8TDP1 1-164)
T1 sequence (looked up) 1: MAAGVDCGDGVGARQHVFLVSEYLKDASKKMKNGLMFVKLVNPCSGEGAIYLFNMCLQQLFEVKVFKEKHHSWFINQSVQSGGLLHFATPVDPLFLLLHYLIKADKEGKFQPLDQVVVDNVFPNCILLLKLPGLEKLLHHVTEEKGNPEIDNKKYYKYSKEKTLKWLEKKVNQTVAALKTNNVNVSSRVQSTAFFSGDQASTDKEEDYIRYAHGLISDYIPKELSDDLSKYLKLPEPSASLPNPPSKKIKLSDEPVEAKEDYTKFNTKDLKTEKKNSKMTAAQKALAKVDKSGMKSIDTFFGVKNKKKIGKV
T1 sequence (looked up) 2: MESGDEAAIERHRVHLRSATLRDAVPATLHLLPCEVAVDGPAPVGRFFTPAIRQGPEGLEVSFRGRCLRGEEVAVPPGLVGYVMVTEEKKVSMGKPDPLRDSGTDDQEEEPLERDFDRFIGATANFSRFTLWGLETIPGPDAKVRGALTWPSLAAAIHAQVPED
Test: fluorescence polarisation

Binder: fluorescein-GSSHRYFLERGLESATSL [fluorescein-labeled peptide RNASEH2A:283–299]
- Kd: 123 ± 10 nM
